As a reminder, the Km is the substrate concentration at which the rate is half of its maximum. By kcat is commonly meant the maximal rate divided by the concentration of active sites.

Substrate in series [1]: O=c1ccn([C@@H]2O[C@H](CO[P@@](=O)(O)O[P@@](=O)(O)O[C@H]3O[C@H](CO)[C@@H](O)[C@H](O)[C@H]3O)[C@@H](O)[C@H]2O)c(=O)[nH]1
The series can be described thus: UPLC-MS glucosylation assay, SDG formation, Lineweaver-Burk. Format: biochemical, Linum usitatissimum. Conditions: SDG production, 280 μM SECO fixed, pH 8.0, 30°C, 1 mM NaCl, 80 μg protein.

Substrate in series [2]: COc1cc(C[C@@H](CO)[C@H](CO)Cc2ccc(O)c(OC)c2)ccc1O
The series is described as above. Format: biochemical, Linum usitatissimum. Conditions: SDG production (sequential glucosylation via SMG), 1.67 mM UDP-glucose fixed, pH 8.0, 30°C, 1 mM NaCl, 80 μg protein.

B1: UGT74S1 (Linum usitatissimum) (protein)
chain: MAGDEREKAHCLVVPAAAQGHFTPLLQFSKRLIPKRIRVTLALTRFIHSTMTVTAQSGIHIDTISDGFDHSGLILQDPEHYSQTFRRVGSETLTDLIRKQSESRHPVHCIIYDASMPWFLDVAKRFGIVGAAFLTQSCAVNAIYYHLREGTIKRPVVSDPAAGTLVIDGLPPLEVSDLPSFIWDDLHTEFLAAHLRQFSNDGADWVFCNTVYQLELEAVDWLTKQWLINFRTIGPTIPSFYLDKQIPDDKDYDISIFNPQNQTCMNWLQSKPDGSVVYVSFGSLARLSPQQTEELYFGLKNSNHYFLWVVRESEVAKLPKEEYLSGEKGLVVSWCSQLQVLASGKVGCFVTHCGWNSTLEALSLGVPMVAMPECGDQLTNAKFIKDVWKTGVRAEADDGKGIMWGMIKREVIERCIREVMEGEETRRNADKWGKIIKEAVVEGGSSDKNTEDFATSLINFAETFQFSC
For the protein B1, the Km in series [1] was found to be 1188 µM. Further, in series [2], the Km came out at 79 µM and the kcat was determined as 0.89 s⁻¹.

These data come from paper PMC3986616, “Identification and functional characterization of a flax UDP-glycosyltransferase glucosylating secoisolariciresinol (SECO) into secoisolariciresinol monoglucoside (SMG) and diglucoside (SDG)” (BMC Plant Biology, 2014).
